Reference: patent publication US10308606B2, “PSMA-targeted NIR dyes and their uses” (On Target Laboratories, LLC, priority 2016, dated 2019)

Assays:
PSMA = biological target: T1, PSMA (Homo sapiens, UniProt Q04609); test: In vitro binding: relative binding affinity versus DUPA-FITC on PSMA-positive 22Rv1 cells; details: 1 h at 37° C., 100 nM DUPA-FITC, FIG. 2, read-out: dissociation constant (KD)
T1 construct: PSMA-positive 22Rv1 human prostate cancer cells; endogenous in cells; host or cells: 22Rv1 human prostate cancer cells
T1 sequence (Q04609 whole entry): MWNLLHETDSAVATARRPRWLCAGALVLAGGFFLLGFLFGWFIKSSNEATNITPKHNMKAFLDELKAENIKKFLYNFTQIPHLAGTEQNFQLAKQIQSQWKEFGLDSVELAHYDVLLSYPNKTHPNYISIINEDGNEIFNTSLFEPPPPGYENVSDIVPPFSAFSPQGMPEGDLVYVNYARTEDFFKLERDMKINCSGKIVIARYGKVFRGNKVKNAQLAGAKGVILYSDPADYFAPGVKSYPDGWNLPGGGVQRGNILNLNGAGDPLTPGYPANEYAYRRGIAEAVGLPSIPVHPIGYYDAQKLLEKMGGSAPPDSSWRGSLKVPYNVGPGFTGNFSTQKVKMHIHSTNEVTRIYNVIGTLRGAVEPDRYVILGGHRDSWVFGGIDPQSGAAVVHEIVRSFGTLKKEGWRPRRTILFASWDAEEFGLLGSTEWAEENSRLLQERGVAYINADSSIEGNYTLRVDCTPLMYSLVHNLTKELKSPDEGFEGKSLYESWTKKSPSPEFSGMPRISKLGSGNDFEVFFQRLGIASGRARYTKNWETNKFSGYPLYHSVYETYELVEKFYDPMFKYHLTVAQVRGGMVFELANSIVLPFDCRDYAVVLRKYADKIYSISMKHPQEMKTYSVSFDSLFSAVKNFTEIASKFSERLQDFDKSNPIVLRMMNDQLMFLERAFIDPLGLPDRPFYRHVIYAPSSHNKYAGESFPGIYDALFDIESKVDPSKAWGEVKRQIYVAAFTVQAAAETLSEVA
Procedure: FIG. 2 illustrates the relative binding affinity of 1: OTL78 with respect to DUPA-FITC (14). PSMA-positive 22Rv1 human prostate cancer cells were incubated for 1 h at 37° C. in the presence of 100 nM DUPA-FITC with increasing concentrations of 1. Media was then removed, washed with fresh media three times, and replaced with PBS. Cell bound fluorescence was assayed as using flow cytometry.
General Methods: 22Rv1 cells (a human prostate cancer cells) were grown as a monolayer using RPMI medium (Gibco, NY) 10% heat-inactivated fetal bovine serum (Atlanta Biological, GA) and 1% penicillin streptomycin (Gibco, NY) in a 5% carbon dioxide: 95% air-humidified atmosphere at 37° C. for at least six passages before they were used for the assays.
In vitro binding and specificity: 22Rv1 cells were seeded into a T75 flask and allowed to form a monolayer over 24 h. After trypsin digestion, release cells were transferred into centrifuge tubes (1×10^6 cells/tube) and centrifuged. […] After rinsing with fresh medium (2×1.0 mL) and PBS (1×1.0 mL), cells were resuspended in PBS (1.0 mL) and cell bound fluorescence was analyzed (100,000 cells/sample) using a fluorometer (Cary, Agilent). The relative binding affinities were calculated using a plot of % cell bound fluorescence versus the log concentration of the test article using GraphPad Prism 4.

[1] = system: 22Rv1 human prostate tumor xenograft; test: Time dependent whole body imaging; assay type: in vivo, mouse; details: 10 nmol, FIG. 6
Procedure: FIGS. 6A-6F: Overlay of whole body or half body fluorescence image over white light images after adjusting the threshold. 22Rv1 human prostate tumor xenograft bearing mouse was injected with 10 nmol of 1: OTL78 and imaged with IVIS imager (ex=745 nm, em=ICG, exposure time=1 s) at different time intervals.
Settings for imaging:—lamp level: medium; excitation: 745 nm; emission: ICG(830 nm); epi illumination; binning: 4 (M), FOV=12.5; f-stop=2; acquisition time=1 s. For time dependent studies, animals were imaged under anesthesia using isoflurane. Whole body imaging (intact tumor) experiments was then performed using a Caliper IVIS Lumina II Imaging Station with Living Image 4.0 software (PerkinElmer Inc, MA).

Compound	Kd (PSMA)	time remained in the tumor [1]	time to saturation in PSMA-positive tumors [1]
DUPA_PEG2—Phe_Tyr-S0456 [compound 5]	1 nM		
CC1(C)C(/C=C/C2=C(Oc3ccc(C[C@H](NC(=O)[C@H](Cc4ccccc4)NC(=O)CCOCCOCCNC(=O)CC[C@H](NC(=O)N[C@@H](CCC(=O)O)C(=O)O)C(=O)O)C(=O)O)cc3)C(=C/C=C3/N(CCCCS(=O)(=O)O)c4ccc(S(=O)(=O)O)cc4C3(C)C)/CCC2)=[N+](CCCCS(=O)(=O)[O-])c2ccc(S(=O)(=O)O)cc21 [1: OTL78, DUPA_PEG2_Phe_Tyr-50456]		over 24 h	≤ 2 h
